In test [1] the target is T1, polypeptide C9797BL020-7.
T1 construct: also called antigen peptide
T1 peptide: CDSVNVDKQPKYEYS
In words: affinity sorting, kinetic fit in RU, antibody as analyte solution.

The target of test [2] is SCN9A-4-B2M. Kind of test: SPR, ligand SCN9A-4-B2M, analyte 5C12D2C8, 1:1 binding fit; analyte at 12.5 to 400 nM per paragraph 79.
Test [3] addresses T1, polypeptide C9797BL020-7. In words: SPR, antibody at 12.5, 25, 50, 100, 200 and 400 nM.

B1: monoclonal antibody 5C12D2C8 (antibody, V domains shown)
VH: EVQLVESGGDLVKPGGSLKLSCAASGFTFSSGGMSWVRQTPDKRLEWVATISNGGGETYYEDSVKGRFTISRDNAKNTLYLQMNSLKSEDTAMYYCAREEYEGTWYEDVWGAGTTVTVSS
VL: DVLMTQTPLSLPVSLGDQASISCTSSQSGVHSNGNTELEWYLQKPGQSPKLLIYKVSNRTSGVPDRFSGSGSGTDFTLKISRVEAEDLGVYYCGQGSHVGRTFGGGTKLEIKR
For B1, the Kd (in general, the concentration at which binding is half-saturated) was 4.55 nM in test [1] and 8.78 nM in test [3]. Moreover, the koff (usually a measure of how fast the partners let go of each other) in test [1] was determined as 0.00023 s⁻¹; in test [3] it was 0.000247 s⁻¹. Further, the kon – broadly, a measure of how fast the partners come together – was 50600 M⁻¹ s⁻¹ in test [1] and 28100 M⁻¹ s⁻¹ in test [2].

For the origin of these results see patent US20250277027A1 (POPULAS BIOPHARMACEUTICAL WUHAN, published 2025).
